Test results from patent publication US20160194380A1 (Merck KGaA, published 2016).
Where no end group is shown, it is not given here.

B1: SOTI-III wt (inhibitor 1) (peptide, UniProt P84781 1-37, looked up)
peptide: EDKCSPSGAICSGFGPPEQCCSGACVPHPILRIFVCQ
modifications: disulfide (positions not given here); also: oxidatively folded, disulfide places not given here
notes: Made by Fmoc-SPPS and oxidative folding; also called 1 (SOTI-III wt); SOTI-III wild type 1
B2: MCoTI-II wt (inhibitor 3) (peptide, UniProt P82409 5-34, looked up)
peptide: GGVCPKILKKCRRDSDCPGACICRGNGYCG
modifications: disulfide (positions not given here); also: oxidatively folded, disulfide places not given here
notes: Open-chain (acyclic) form, chemically synthesised and oxidatively folded; also called 3 (MCoTI-II wt); MCoTI-wt 3

Legend:
[1] = biological target: T1, Bovine pancreatic trypsin (bovine, UniProt P00760 24-246); assay: protease inhibition assay, substrate-independent Ki from Morrison fit
T1 construct: Bought
T1 sequence (P00760 24-246): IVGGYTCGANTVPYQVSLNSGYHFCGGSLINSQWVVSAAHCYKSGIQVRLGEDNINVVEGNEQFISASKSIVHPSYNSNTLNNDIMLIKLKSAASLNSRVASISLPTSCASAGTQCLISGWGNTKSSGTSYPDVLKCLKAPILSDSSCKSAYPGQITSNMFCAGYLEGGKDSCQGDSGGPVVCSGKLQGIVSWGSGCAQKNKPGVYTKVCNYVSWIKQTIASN
Procedure: (§1) D: Biol. Crystallogr., 69(2013), 114-120; Reinwarth, ChemBioChem, 14(2013), 137-146; Boy, Mol. Imaging Biol. 12(2010), 377-385] Measurements were carried out in triplicates using a Tecan Genios ELISA reader. The normalized residual proteolytic activity (v/v0) of proteases was determined using substrates Boc-QAR-pNA (250 μM), Boc-QAR-AMC (250 μM) or Spectrozym tPA (250 μM). Product formation was monitored after preincubation (30 min, RT) with inhibitor at different concentrations over 30 min by measuring the absorbance at 405 nm or the fluorescence emission (ex. 360 nm, em. 465 nm), respectively. Selectivity data were carried out in duplicates with final protease concentrations of uPA and thrombin of 5 nM. In case of hepsin 50 mM Tris/HCl pH 9.0 was used as assay buffer. Apparent inhibition constants (Kᵢ^app) were calculated by fitting the Morrison equation (1) for tight-binding inhibitors to the relative reaction velocity using non-linear regression (Marquardt-Levenberg algorithm, SigmaPlot 11).
(§2) Substrate-independent inhibition constants Ki were calculated from Ki^app and Km of the enzyme according to (2). The Michaelis-Menten constant Km for the substrates and proteases were determined previously.

Human matriptase-1 = biological target: T2, Human matriptase-1 (human, UniProt Q9Y5Y6 596-855, limits assumed); assay: as above
T2 construct: also called MTSP1
T2 sequence (looked up): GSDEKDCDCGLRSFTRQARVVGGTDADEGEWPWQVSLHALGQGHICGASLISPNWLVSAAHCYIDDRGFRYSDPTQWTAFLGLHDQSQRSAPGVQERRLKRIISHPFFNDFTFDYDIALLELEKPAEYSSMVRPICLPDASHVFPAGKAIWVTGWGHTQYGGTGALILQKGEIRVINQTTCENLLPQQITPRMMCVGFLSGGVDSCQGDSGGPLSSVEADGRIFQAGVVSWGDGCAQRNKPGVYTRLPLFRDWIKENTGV
Procedure: as §1, §2

Binder	Ki [1]	Ki (Human matriptase-1)
B1	60.6 nM	
B2	2.37 nM	80.7 nM
